From PMC9482650, “Quantitative fragmentomics allow affinity mapping of interactomes” (Nature Communications, 2022)

How the values were obtained:
Experiment in all cases: holdup assay
Parameters in all cases: key: below the threshold = too weak to quantify, mostly under pKd 3.1 to 4
LDB3, O75112 = biological target: LDB3, O75112
DLG4_3, P78352 = biological target: DLG4_3, P78352
AHNAK1, Q09666 = biological target: AHNAK1, Q09666
HTRA3, P83110 = biological target: T1, HTRA3, P83110
T1 sequence (P83110 354-453, limits assumed, looked up): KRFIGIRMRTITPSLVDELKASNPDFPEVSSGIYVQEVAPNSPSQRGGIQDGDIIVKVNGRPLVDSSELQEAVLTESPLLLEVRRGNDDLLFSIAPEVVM

LNX1_3, Q8TBB1 = biological target: LNX1_3, Q8TBB1
LNX1_3, Q8TBB1, sequence (Q8TBB1 500-596): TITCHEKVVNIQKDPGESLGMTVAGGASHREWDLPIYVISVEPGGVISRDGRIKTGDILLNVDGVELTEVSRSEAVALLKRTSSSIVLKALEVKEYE

SHANK1, Q9Y566 = biological target: T2, SHANK1, Q9Y566
T2 sequence (Q9Y566 658-767, limits assumed, looked up): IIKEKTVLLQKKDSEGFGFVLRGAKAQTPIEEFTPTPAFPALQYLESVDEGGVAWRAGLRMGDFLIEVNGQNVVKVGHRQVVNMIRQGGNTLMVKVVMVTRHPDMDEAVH

LNX1_2, Q8TBB1 = biological target: LNX1_2, Q8TBB1
LNX1_2, Q8TBB1, sequence (Q8TBB1 371-470): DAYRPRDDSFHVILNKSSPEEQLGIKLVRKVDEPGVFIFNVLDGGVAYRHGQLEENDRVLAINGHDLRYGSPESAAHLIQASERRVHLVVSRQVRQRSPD

GRIP2_5, Q9C0E4 = biological target: GRIP2_5, Q9C0E4
GRIP2_5, Q9C0E4, sequence (Q9C0E4 544-642): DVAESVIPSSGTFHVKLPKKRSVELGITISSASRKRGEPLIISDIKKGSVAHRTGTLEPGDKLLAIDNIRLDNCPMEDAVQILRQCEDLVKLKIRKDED

MAGI3_2, Q5TCQ9 = biological target: MAGI3_2, Q5TCQ9
MAGI3_2, Q5TCQ9, sequence (Q5TCQ9 398-503): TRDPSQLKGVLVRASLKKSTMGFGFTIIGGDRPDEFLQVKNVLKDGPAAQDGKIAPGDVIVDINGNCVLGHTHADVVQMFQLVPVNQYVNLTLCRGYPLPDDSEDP

GRID2IP_2, A4D2P6 = biological target: GRID2IP_2, A4D2P6
GRID2IP_2, A4D2P6, sequence (A4D2P6 272-370): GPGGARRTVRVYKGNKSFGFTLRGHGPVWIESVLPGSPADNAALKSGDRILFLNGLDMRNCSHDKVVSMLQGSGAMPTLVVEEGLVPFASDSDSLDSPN

LNX1_1, Q8TBB1 = biological target: LNX1_1, Q8TBB1
LNX1_1, Q8TBB1, sequence (Q8TBB1 261-371): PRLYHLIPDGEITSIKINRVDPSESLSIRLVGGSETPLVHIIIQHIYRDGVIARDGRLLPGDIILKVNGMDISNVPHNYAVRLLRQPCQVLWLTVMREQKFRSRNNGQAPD

NHERF3_1, Q5T2W1 = biological target: T3, NHERF3_1, Q5T2W1
T3 sequence (Q5T2W1 4-100, limits assumed, looked up): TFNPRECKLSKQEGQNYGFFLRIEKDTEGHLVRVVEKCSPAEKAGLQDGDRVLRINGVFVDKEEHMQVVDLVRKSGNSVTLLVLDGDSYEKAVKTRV

IL16_4, Q14005 = biological target: IL16_4, Q14005
IL16_4, Q14005, sequence (Q14005 1229-1329): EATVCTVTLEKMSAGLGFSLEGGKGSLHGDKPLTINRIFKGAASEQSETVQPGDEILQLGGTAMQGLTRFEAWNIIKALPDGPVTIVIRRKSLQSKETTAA

SNTG1, Q9NSN8 = biological target: T4, SNTG1, Q9NSN8
T4 sequence (Q9NSN8 52-150, limits assumed, looked up): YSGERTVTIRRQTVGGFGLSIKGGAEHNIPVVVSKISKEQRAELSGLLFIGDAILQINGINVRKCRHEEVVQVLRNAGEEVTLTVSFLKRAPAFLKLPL

GRIP1_5, Q9Y3R0 = biological target: T5, GRIP1_5, Q9Y3R0
T5 sequence (Q9Y3R0 568-668, limits assumed, looked up): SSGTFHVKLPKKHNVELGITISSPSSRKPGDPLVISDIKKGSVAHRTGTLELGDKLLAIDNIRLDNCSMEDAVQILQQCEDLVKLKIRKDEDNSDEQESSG

MAST2, Q6P0Q8 = biological target: MAST2, Q6P0Q8
MAST2, Q6P0Q8, sequence (Q6P0Q8 1099-1202): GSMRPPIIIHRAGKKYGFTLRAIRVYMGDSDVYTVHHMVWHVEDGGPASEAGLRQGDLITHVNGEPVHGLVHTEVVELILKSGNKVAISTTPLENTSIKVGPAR

GRID2IP_1, A4D2P6 = biological target: GRID2IP_1, A4D2P6
GRID2IP_1, A4D2P6, sequence (A4D2P6 1-87): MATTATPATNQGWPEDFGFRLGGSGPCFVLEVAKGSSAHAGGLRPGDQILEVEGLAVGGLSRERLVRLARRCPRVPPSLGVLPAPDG

APBA1_1, Q02410 = biological target: T6, APBA1_1, Q02410
T6 sequence (Q02410 651-752, limits assumed, looked up): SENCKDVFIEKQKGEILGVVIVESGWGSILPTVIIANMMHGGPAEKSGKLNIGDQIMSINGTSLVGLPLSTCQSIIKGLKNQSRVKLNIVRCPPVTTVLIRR

NHERF3_4, Q5T2W1 = biological target: T7, NHERF3_4, Q5T2W1
T7 sequence (Q5T2W1 373-468, limits assumed, looked up): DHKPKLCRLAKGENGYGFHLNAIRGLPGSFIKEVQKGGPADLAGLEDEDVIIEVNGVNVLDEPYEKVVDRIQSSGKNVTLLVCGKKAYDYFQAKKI

NHERF3_3, Q5T2W1 = biological target: T8, NHERF3_3, Q5T2W1
T8 sequence (Q5T2W1 238-333, limits assumed, looked up): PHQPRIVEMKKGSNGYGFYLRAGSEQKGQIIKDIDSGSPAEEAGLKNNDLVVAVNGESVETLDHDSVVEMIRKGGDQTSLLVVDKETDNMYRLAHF

NHERF4_4, Q86UT5 = biological target: NHERF4_4, Q86UT5
NHERF4_4, Q86UT5, sequence (Q86UT5 464-550): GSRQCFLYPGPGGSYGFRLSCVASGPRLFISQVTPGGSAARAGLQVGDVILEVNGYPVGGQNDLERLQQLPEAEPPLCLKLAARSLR

SNX27, Q96L92 = biological target: SNX27, Q96L92
MAGI2_3, Q86UL8 = biological target: MAGI2_3, Q86UL8
MAGI2_3, Q86UL8, sequence (Q86UL8 600-682): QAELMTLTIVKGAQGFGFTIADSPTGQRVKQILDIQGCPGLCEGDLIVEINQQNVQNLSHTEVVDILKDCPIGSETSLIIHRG

Inadl_10, Q8NI35 = biological target: Inadl_10, Q8NI35
Inadl_10, Q8NI35, sequence (Q8NI35 1673-1763): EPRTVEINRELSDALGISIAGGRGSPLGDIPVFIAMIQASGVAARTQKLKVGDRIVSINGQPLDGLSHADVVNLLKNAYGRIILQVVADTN

MPP6, Q9NZW5 = biological target: T9, MPP6, Q9NZW5
T9 sequence (Q9NZW5 125-219, limits assumed, looked up): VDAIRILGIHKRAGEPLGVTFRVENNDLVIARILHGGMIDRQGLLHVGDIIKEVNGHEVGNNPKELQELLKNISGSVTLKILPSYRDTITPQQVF

HTRA4, P83105 = biological target: T10, HTRA4, P83105
T10 sequence (P83105 378-476, limits assumed, looked up): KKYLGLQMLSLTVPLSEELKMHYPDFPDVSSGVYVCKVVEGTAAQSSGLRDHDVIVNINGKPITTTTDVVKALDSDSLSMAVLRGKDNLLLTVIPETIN

RHPN1, Q8TCX5 = biological target: T11, RHPN1, Q8TCX5
T11 sequence (Q8TCX5 508-602, limits assumed, looked up): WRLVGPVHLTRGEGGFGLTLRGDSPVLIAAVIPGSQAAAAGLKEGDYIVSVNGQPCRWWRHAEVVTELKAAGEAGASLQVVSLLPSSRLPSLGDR

[1] = plain residues with an end cap or a label only (N-terminal biotin on a linker: ado-ado)
[2] = plain residues with an end cap or a label only (N-terminal biotin on a linker: ahx)
[3] = plain residues with an end cap or a label only (N-terminal biotin on a linker: ttds)

AHNAK1, Q09666, sequence (Q09666 4-100): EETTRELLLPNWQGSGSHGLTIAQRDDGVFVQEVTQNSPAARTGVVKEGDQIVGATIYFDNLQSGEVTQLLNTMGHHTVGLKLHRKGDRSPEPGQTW
DLG4_3, P78352, sequence (P78352 306-403): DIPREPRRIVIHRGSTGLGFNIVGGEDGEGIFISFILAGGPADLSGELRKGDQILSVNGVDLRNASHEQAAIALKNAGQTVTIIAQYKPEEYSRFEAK
LDB3, O75112, sequence (O75112 1-94): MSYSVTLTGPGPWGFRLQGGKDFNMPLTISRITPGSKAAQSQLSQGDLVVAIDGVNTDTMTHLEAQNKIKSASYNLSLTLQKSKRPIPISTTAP

B1: U2AF2, P26368 (peptide)
chain: PDSYHRRDFW
pKd (LDB3, O75112; [1]): below the threshold | pKd (DLG4_3, P78352; [1]): below the threshold | pKd (AHNAK1, Q09666; [1]): below the threshold | pKd (HTRA3, P83110; [1]): 4.01 | pKd (LNX1_3, Q8TBB1; [1]): below the threshold | pKd (SHANK1, Q9Y566; [1]): below the threshold | pKd (LNX1_2, Q8TBB1; [1]): below the threshold | pKd (GRIP2_5, Q9C0E4; [1]): below the threshold | pKd (MAGI3_2, Q5TCQ9; [1]): below the threshold | pKd (GRID2IP_2, A4D2P6; [1]): below the threshold | pKd (LNX1_1, Q8TBB1; [1]): below the threshold | pKd (NHERF3_1, Q5T2W1; [1]): below the threshold | pKd (IL16_4, Q14005; [1]): 3.68 | pKd (SNTG1, Q9NSN8; [1]): below the threshold | pKd (GRIP1_5, Q9Y3R0; [1]): below the threshold | pKd (MAST2, Q6P0Q8; [1]): below the threshold | pKd (GRID2IP_1, A4D2P6; [1]): below the threshold | pKd (APBA1_1, Q02410; [1]): below the threshold | pKd (NHERF3_4, Q5T2W1; [1]): below the threshold | pKd (NHERF3_3, Q5T2W1; [1]): below the threshold | pKd (NHERF4_4, Q86UT5; [1]): below the threshold | pKd (SNX27, Q96L92; [1]): 3.61 | pKd (MAGI2_3, Q86UL8; [1]): below the threshold | pKd (Inadl_10, Q8NI35; [1]): below the threshold | pKd (MPP6, Q9NZW5; [1]): below the threshold | pKd (HTRA4, P83105; [1]): 3.99 | pKd (RHPN1, Q8TCX5; [1]): below the threshold

B2: DLL1, O00548 (peptide)
chain: KDECVIATEV
pKd (LDB3, O75112; [2]): below the threshold | pKd (DLG4_3, P78352; [2]): below the threshold | pKd (AHNAK1, Q09666; [2]): below the threshold | pKd (HTRA3, P83110; [2]): below the threshold | pKd (LNX1_3, Q8TBB1; [2]): below the threshold | pKd (SHANK1, Q9Y566; [2]): 3.76 | pKd (LNX1_2, Q8TBB1; [2]): below the threshold | pKd (GRIP2_5, Q9C0E4; [2]): below the threshold | pKd (MAGI3_2, Q5TCQ9; [2]): below the threshold | pKd (GRID2IP_2, A4D2P6; [2]): 3.48 | pKd (LNX1_1, Q8TBB1; [2]): 3.72 | pKd (NHERF3_1, Q5T2W1; [2]): 3.88 | pKd (IL16_4, Q14005; [2]): below the threshold | pKd (SNTG1, Q9NSN8; [2]): 3.94 | pKd (GRIP1_5, Q9Y3R0; [2]): below the threshold | pKd (MAST2, Q6P0Q8; [2]): 5.17 | pKd (GRID2IP_1, A4D2P6; [2]): below the threshold | pKd (APBA1_1, Q02410; [2]): below the threshold | pKd (NHERF3_4, Q5T2W1; [2]): below the threshold | pKd (NHERF3_3, Q5T2W1; [2]): below the threshold | pKd (NHERF4_4, Q86UT5; [2]): below the threshold | pKd (SNX27, Q96L92; [2]): 4.36 | pKd (MAGI2_3, Q86UL8; [2]): below the threshold | pKd (Inadl_10, Q8NI35; [2]): below the threshold | pKd (MPP6, Q9NZW5; [2]): below the threshold | pKd (HTRA4, P83105; [2]): 3.53 | pKd (RHPN1, Q8TCX5; [2]): 3.95

B3: MAPK12, P53778 (peptide)
chain: GARVSKETPL
pKd (LDB3, O75112; [3]): below the threshold | pKd (DLG4_3, P78352; [3]): 4.03 | pKd (AHNAK1, Q09666; [3]): below the threshold | pKd (HTRA3, P83110; [3]): below the threshold | pKd (LNX1_3, Q8TBB1; [3]): below the threshold | pKd (SHANK1, Q9Y566; [3]): 3.56 | pKd (LNX1_2, Q8TBB1; [3]): below the threshold | pKd (GRIP2_5, Q9C0E4; [3]): below the threshold | pKd (MAGI3_2, Q5TCQ9; [3]): 4.17 | pKd (GRID2IP_2, A4D2P6; [3]): 3.53 | pKd (LNX1_1, Q8TBB1; [3]): below the threshold | pKd (NHERF3_1, Q5T2W1; [3]): 5.56 | pKd (IL16_4, Q14005; [3]): 3.58 | pKd (SNTG1, Q9NSN8; [3]): below the threshold | pKd (GRIP1_5, Q9Y3R0; [3]): below the threshold | pKd (MAST2, Q6P0Q8; [3]): 4.78 | pKd (GRID2IP_1, A4D2P6; [3]): below the threshold | pKd (APBA1_1, Q02410; [3]): below the threshold | pKd (NHERF3_4, Q5T2W1; [3]): 3.72 | pKd (NHERF3_3, Q5T2W1; [3]): below the threshold | pKd (NHERF4_4, Q86UT5; [3]): below the threshold | pKd (SNX27, Q96L92; [3]): 5 | pKd (MAGI2_3, Q86UL8; [3]): below the threshold | pKd (Inadl_10, Q8NI35; [3]): below the threshold | pKd (MPP6, Q9NZW5; [3]): below the threshold | pKd (HTRA4, P83105; [3]): below the threshold | pKd (RHPN1, Q8TCX5; [3]): below the threshold

B4: GDA, Q9Y2T3 (peptide)
chain: KQVVPFSSSV
pKd (LDB3, O75112; [3]): below the threshold | pKd (DLG4_3, P78352; [3]): below the threshold | pKd (AHNAK1, Q09666; [3]): below the threshold | pKd (HTRA3, P83110; [3]): below the threshold | pKd (LNX1_3, Q8TBB1; [3]): 3.55 | pKd (SHANK1, Q9Y566; [3]): 3.49 | pKd (LNX1_2, Q8TBB1; [3]): below the threshold | pKd (GRIP2_5, Q9C0E4; [3]): below the threshold | pKd (MAGI3_2, Q5TCQ9; [3]): 3.81 | pKd (GRID2IP_2, A4D2P6; [3]): 3.6 | pKd (LNX1_1, Q8TBB1; [3]): 3.84 | pKd (NHERF3_1, Q5T2W1; [3]): 4.31 | pKd (IL16_4, Q14005; [3]): below the threshold | pKd (SNTG1, Q9NSN8; [3]): 3.71 | pKd (GRIP1_5, Q9Y3R0; [3]): below the threshold | pKd (MAST2, Q6P0Q8; [3]): 4.83 | pKd (GRID2IP_1, A4D2P6; [3]): below the threshold | pKd (APBA1_1, Q02410; [3]): below the threshold | pKd (NHERF3_4, Q5T2W1; [3]): below the threshold | pKd (NHERF3_3, Q5T2W1; [3]): below the threshold | pKd (NHERF4_4, Q86UT5; [3]): below the threshold | pKd (SNX27, Q96L92; [3]): 3.53 | pKd (MAGI2_3, Q86UL8; [3]): below the threshold | pKd (Inadl_10, Q8NI35; [3]): below the threshold | pKd (MPP6, Q9NZW5; [3]): below the threshold | pKd (HTRA4, P83105; [3]): below the threshold | pKd (RHPN1, Q8TCX5; [3]): below the threshold
